This experiment concerns the target T1, recombinant human CD22 protein with Fc segment (staining reagent) (human, UniProt P20273 20-687).
T1 construct: Reagent used for flow cytometry staining of the CAR; also called Fc fragment of a recombinant human CD22 protein; Fc segment of recombinant human CD22 protein; not shown: Fc segment
T1 sequence (looked up): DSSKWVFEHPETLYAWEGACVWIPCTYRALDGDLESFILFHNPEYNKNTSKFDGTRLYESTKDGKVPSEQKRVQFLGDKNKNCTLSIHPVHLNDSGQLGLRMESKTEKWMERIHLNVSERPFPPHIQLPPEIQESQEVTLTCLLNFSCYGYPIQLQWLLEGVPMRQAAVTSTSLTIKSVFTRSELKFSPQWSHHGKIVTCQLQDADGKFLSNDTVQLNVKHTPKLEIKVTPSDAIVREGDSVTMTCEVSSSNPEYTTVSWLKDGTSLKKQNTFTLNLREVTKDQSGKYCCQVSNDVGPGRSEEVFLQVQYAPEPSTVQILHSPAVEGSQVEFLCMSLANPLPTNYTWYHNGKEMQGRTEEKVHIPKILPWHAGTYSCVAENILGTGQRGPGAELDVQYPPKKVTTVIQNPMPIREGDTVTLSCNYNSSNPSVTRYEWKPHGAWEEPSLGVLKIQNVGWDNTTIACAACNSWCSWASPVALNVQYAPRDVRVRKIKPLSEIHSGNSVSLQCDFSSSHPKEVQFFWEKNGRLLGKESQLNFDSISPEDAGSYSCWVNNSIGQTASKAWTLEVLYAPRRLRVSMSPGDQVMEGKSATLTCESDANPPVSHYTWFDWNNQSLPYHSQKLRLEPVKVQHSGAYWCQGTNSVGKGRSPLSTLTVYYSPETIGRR
Description: flow cytometry of CAR-T cells stained with recombinant human CD22-Fc protein, with untransduced T cells as control. Here is the method:
0.2×10⁶ of CART-CD22.5, CART-CD22.13 and CART-CD22.14 sample cells cultured to Day 6 in Example 2 (FIG. 2) were taken, and, after staining the Fc segment of recombinant human CD22 protein, the expression level of CAR-CD22 protein on the surface of T cell membranes was analyzed by flow cytometry, with untransduced T cells (NT cells) used as control.

B1: CAR-T22.14 chimeric antigen receptor (anti-CD22 scFv from antibody 4G6, CD8 hinge and transmembrane region, 4-1BB, CD3 zeta), on primary human T cells (other)
chain: QVQLVQSGAEVKKPGSSVKVSCKPSGDTFSNYAISWVRQAPGQGLEWMGRIIPILGMAIYAPKFQGRVTITADKSTNTAFMDLTSLYFEDTAVYYCARAPTYWGSKDYFDYWGQGTLVTVSSGGGGSGGGGSGGGGSAIQLTQSPSSLSASVGDRVTITCRASQDISSGLAWYQQKPGTAPKLLIYDASSLESGVPSRFSGSGSGTDFTLTISSLQPDDFATYYCQQFNSFPYTFGQGTKLEIKFVPVFLPAKPTTTPAPRPPTPAPTIASQPLSLRPEACRPAAGGAVHTRGLDFACDIYIWAPLAGTCGVLLLSLVITLYCKRGRKKLLYIFKQPFMRPVQTTQEEDGCSCRFPEEEEGGCELRVKFSRSADAPAYQQGQNQLYNELNLGRREEYDVLDKRRGRDPEMGGKPRRKNPQEGLYNELQKDKMAEAYSEIGMKGERRRGKGHDGLYQGLSTATKDTYDALHMQALPPR
notes: CAR on the membrane of lentivirus-transduced T cells; also called CART-CD22.14; CAR22.14
In the case of B1, the binding result was “binds”.

B2: CAR-T22.13 chimeric antigen receptor (anti-CD22 scFv from antibody 16F7, CD8 hinge and transmembrane region, 4-1BB, CD3 zeta), on primary human T cells (other)
chain: EVQLVQSGAEVKKPGESLKISCKGSGYNFTSYWIGWVRQMPGKGLEWMGIIYPGDSDTRYSPSFQGQVTISADKSISTAYLQWSSLKASDTAMYYCATPTYYFGSVAFDIWGQGTMVTVSSGGGGSGGGGSGGGGSEIVLTQSPDFQSVTPKEKVTITCRASQSIGSSLHWYQQKPDQSPKLLIKYASQSFSGVPSRFSGSGSGTDFTLTINSLEAEDAAAYYCHQSSSLPYTFGQGTKLEIKFVPVFLPAKPTTTPAPRPPTPAPTIASQPLSLRPEACRPAAGGAVHTRGLDFACDIYIWAPLAGTCGVLLLSLVITLYCKRGRKKLLYIFKQPFMRPVQTTQEEDGCSCRFPEEEEGGCELRVKFSRSADAPAYQQGQNQLYNELNLGRREEYDVLDKRRGRDPEMGGKPRRKNPQEGLYNELQKDKMAEAYSEIGMKGERRRGKGHDGLYQGLSTATKDTYDALHMQALPPR
notes: CAR on the membrane of lentivirus-transduced T cells; also called CART-CD22.13; CAR22.13
Consider B2, for which the binding result is reported as “binds”.

For the origin of these results see patent publication US20230144447A1 (published 2023).
